Measurements reported in patent US20070238677A1 (LOCOMOGENE, published 2007).

Molecular target: FLAG-Synoviolin (UniProt Q86TM6 1-617, limits assumed)
Assay: cell-based or functional assay

Chain of FLAG-Synoviolin (Q86TM6 whole entry): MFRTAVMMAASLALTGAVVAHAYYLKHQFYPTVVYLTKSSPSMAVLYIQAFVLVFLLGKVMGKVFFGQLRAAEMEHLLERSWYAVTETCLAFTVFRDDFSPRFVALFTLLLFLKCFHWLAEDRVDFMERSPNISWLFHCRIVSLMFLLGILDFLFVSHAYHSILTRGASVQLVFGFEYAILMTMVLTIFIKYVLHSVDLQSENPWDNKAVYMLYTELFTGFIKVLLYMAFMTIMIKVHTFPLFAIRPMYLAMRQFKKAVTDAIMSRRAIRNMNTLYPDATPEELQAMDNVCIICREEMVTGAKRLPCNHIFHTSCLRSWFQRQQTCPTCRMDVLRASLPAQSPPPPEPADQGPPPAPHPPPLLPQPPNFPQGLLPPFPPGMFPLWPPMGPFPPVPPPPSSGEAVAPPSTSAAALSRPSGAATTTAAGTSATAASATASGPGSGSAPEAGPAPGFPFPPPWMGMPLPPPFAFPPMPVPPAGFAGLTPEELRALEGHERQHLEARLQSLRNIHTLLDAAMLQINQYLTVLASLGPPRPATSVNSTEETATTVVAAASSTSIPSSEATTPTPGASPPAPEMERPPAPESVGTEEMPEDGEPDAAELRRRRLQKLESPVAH

B1: SP-HA-hsHRD3B (SEL1L/hsHRD3 with an HA-tag inserted immediately after the signal peptide) (other, not shown: small tags and cut ends)
chain: GSQDESLDSKTTLTSDESVKDHTTAGRVVAGQIFLDSEESELESSIQEEEDSLKSQEGESVTEDISFLESPNPENKDYEEPKKVRKPALTAIEGTAHGEPCHFPFLFLDKEYDECTSDGREDGRLWCATTYDYKADEKWGFCETEEEAAKRRQMQEAEMMYQTGMKILNGSNKKSQKREAYRYLQKAASMNHTKALERVSYALLFGDYLPQNIQAAREMFEKLTEEGSPKGQTALGFLYASGLGVNSSQAKALVYYTFGALGGNLIAHMVLGYRYWAGIGVLQSCESALTHYRLVANHVASDISLTGGSVVQRIRLPDEVENPGMNSGMLEEDLIQYYQFLAEKGDVQAQVGLGQLHLHGGRGVEQNHQRAFDYFNLAANAGNSHAMAFLGKMYSEGSDIVPQSNETALHYFKKAADMGNPVGQSGLGMAYLYGRGVQVNYDLALKYFQKAAEQGWVDGQLQLGSMYYNGIGVKRDYKQALKYFNLASQGGHILAFYNLAQMHASGTGVMRSCHTAVELFKNVCERGRWSERLMTAYNSYKDGDYNAAVIQYLLLAEQGYEVAQSNAAFILDQREASIVGENETYPRALLHWNRAASQGYTVARIKLGDYHFYGFGTDVDYETAFIHYRLASEQQHSAQAMFNLGYMHEKGLGIKQDIHLAKRFYDMAAEASPDAQVPVFLALCKLGVVYFLQYIRETNIRDMFTQLDMDQLLGPEWDLYLMTIIALLLGTVIAYRQRQHQDMPAPRPPGPRPAPPQQEGPPEQQPPQ
With B1 the “half-life of SEL1L/hsHRD3 (cycloheximide chase, Western blotting), in the absence of Synoviolin” value was 1.8 h and the “half-life of SEL1L/hsHRD3 (cycloheximide chase, Western blotting), with FLAG-Synoviolin co-expressed” value was 4.3 h.
